# Source: article PMC11678472, “Comparative Analysis of Symmetry Parameters in the E2 Inner Core of the Pyruvate Dehydrogenase Complex” (International Journal of Molecular Sciences, 2024)
# Biological target: the molecule itself
# Test: cryo-EM structure; single-particle analysis of purified truncated E2 (4 uL of 100 nM) on a holey carbon grid, vitrified at 4 °C and 100% humidity; 69,946 particles; reconstructed with C1, C5, D2, T and I symmetry (4.93 to 4.20 Å)
protein,measurement,value
"truncated dihydrolipoyl acetyltransferase (E2) of the pyruvate dehydrogenase complex of B. stearothermophilus, amino acids 185 to 425 (catalytic core domain … (domain or fragment, Bacillus stearothermophilus, UniProt P11961 185-425, looked up, dihydrolipoyl acetyltransferase (E2) of the pyruvate dehydrogenase complex, Bacillus stearothermophilus, UniProt P11961; Forms an icosahedral inner core built of trimeric units; It says only that I symmetry has 60 elements; The monomer runs at about 32 kDa on SDS-PAGE, more than residues 185-425 alone, so tags are probably present; also called truncated E2; E2 inner core complex; source: E. coli …) AAAKPATTEGEFPETREKMSGIRRAIAKAMVHSKHTAPHVTLMDEADVTKLVAHRKKFKAIAAEKGIKLTFLPYVVKALVSALREYPVLNTSIDDETEEIIQKHYYNIGIAADTDRGLLVPVIKHADRKPIFALAQEINELAEKARDGKLTPGEMKGASCTITNIGSAGGQWFTPVINHPEVAILGIGRIAEKPIVRDGEIVAAPMLALSLSFDHRMIDGATAQKALNHIKRLLSDPELLL",stoichiometry N,3
